Data taken from patent US20260167721A1 (ABLEXIS, published 2026).
One block for each binder: values may come before it.

Legend:
recombinant CD3 proteins [1] = biological target: T1, recombinant CD3 proteins (UniProt P07766 23-126); assay: Octet BLI, recombinant CD3; Full R^2 0.9829
T1 construct: elsewhere it uses human CD3 E/D and E/G heterodimers

recombinant CD3 proteins [2] = biological target: T1, recombinant CD3 proteins; assay: Octet BLI, recombinant CD3; Full R^2 0.8423
recombinant CD3 proteins [3] = biological target: T1, recombinant CD3 proteins; assay: Octet BLI, recombinant CD3; Full R^2 0.9688
recombinant CD3 proteins [4] = biological target: T1, recombinant CD3 proteins; assay: Octet BLI, recombinant CD3; Full R^2 0.5677
recombinant CD3 proteins [5] = biological target: T1, recombinant CD3 proteins; assay: Octet BLI, recombinant CD3; Full R^2 0.9599

T1 sequence (P07766 23-126): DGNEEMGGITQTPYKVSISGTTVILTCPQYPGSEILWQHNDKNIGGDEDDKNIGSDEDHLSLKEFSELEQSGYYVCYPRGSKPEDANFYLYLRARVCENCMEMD

B1: CD3 × CD33-BspAb85 (bispecific antibody)
chain 1: EVQLVESGGGLVKPGGSLRLSCAASGFTFSSYSMNWVRQAPGKCLEWVSSISRSSGYIFYADSVKGRFTISRDNAKNSLYLQMNSLRAEDTAVYYCVRERVGAGFDYWGQGTLVTVSSGGGGSGGGGSGGGGSGGGGSNFMLTQPHSVSESPGKTVAISCTRSSGSIASNYVQWYQQRPGSSPTAVIYEDNQRPSGVPDRFSGSIDSSSNSAFLTISGLKTEDEADYYCQSYDSSNRVFGCGTKLTVLDKTHTCPPCPAPEFEGGPSVFLFPPKPKDTLMISRTPEVTCVVVDVSHEDPEVKFNWYVDGVEVHNAKTKPREEQYNSTYRVVSVLTVLHQDWLNGKEYKCKVSNKALPASIEKTISKAKGQPREPQVYTLPPCREEMTKNQVSLWCLVKGFYPSDIAVEWESNGQPENNYKTTPPVLDSDGSFFLYSKLTVDKSRWQQGNVFSCSVMHEALHNHYTQKSLSLSPGK
chain 2: EVQLVQSGAEVKKPGSSVKVSCKASGYTITDSNIHWVRQAPGQSLEWIGYIYPYNGGTDYNQKFKNRATLTVDNPTNTAYMELSSLRSEDTAFYYCVNGNPWLAYWGQGTLVTVSSASTKGPSVFPLAPSSKSTSGGTAALGCLVKDYFPEPVTVSWNSGALTSGVHTFPAVLQSSGLYSLSSVVTVPSSSLGTQTYICNVNHKPSNTKVDKRVEPKSCDKTHTCPPCPAPEFEGGPSVFLFPPKPKDTLMISRTPEVTCVVVDVSHEDPEVKFNWYVDGVEVHNAKTKPREEQYNSTYRVVSVLTVLHQDWLNGKEYKCKVSNKALPASIEKTISKAKGQPREPQVCTLPPSREEMTKNQVSLSCAVKGFYPSDIAVEWESNGQPENNYKTTPPVLDSDGSFFLVSKLTVDKSRWQQGNVFSCSVMHEALHNRFTQKSLSLSPGK
chain 3: DIQLTQSPSTLSASVGDRVTITCRASESLDNYGIRFLTWFQQKPGKAPKLLMYAASNQGSGVPSRFSGSGSGTEFTLTISSLQPDDFATYYCQQTKEVPWSFGQGTKVEVKRTVAAPSVFIFPPSDEQLKSGTASVVCLLNNFYPREAKVQWKVDNALQSGNSQESVTEQDSKDSTYSLSSTLTLSKADYEKHKVYACEVTHQGLSSPVTKSFNRGEC
Kd (recombinant CD3 proteins [1]): 60.8 nM
koff (recombinant CD3 proteins [1]): 0.0149 s⁻¹
kon (recombinant CD3 proteins [1]): 246000 M⁻¹ s⁻¹

B4: CD3 × CD33-BspAb87 (bispecific antibody)
chain 1: EVQLVESGGGLVKPGGSLRLSCAASGFTVSNYSMNWVRQAPGKCLEWVSSISRSSSYIYYADSVKGRFTISRDNAKNSLFLQMNSLRAEDTAVYYCARERWELLYFDYWGQGTLVTVSSGGGGSGGGGSGGGGSGGGGSQTVVTQEPSFSVSPGGTVTLTCGLSSGSVSTSYYPSWYQQTPGQAPRTLIYSTNTRSSGVPDRFSGSILGNKAALTITGAQADDESDYYCVLYMGSGIWVFGCGTKLTVLDKTHTCPPCPAPEFEGGPSVFLFPPKPKDTLMISRTPEVTCVVVDVSHEDPEVKFNWYVDGVEVHNAKTKPREEQYNSTYRVVSVLTVLHQDWLNGKEYKCKVSNKALPASIEKTISKAKGQPREPQVYTLPPCREEMTKNQVSLWCLVKGFYPSDIAVEWESNGQPENNYKTTPPVLDSDGSFFLYSKLTVDKSRWQQGNVFSCSVMHEALHNHYTQKSLSLSPGK
chain 2: EVQLVQSGAEVKKPGSSVKVSCKASGYTITDSNIHWVRQAPGQSLEWIGYIYPYNGGTDYNQKFKNRATLTVDNPTNTAYMELSSLRSEDTAFYYCVNGNPWLAYWGQGTLVTVSSASTKGPSVFPLAPSSKSTSGGTAALGCLVKDYFPEPVTVSWNSGALTSGVHTFPAVLQSSGLYSLSSVVTVPSSSLGTQTYICNVNHKPSNTKVDKRVEPKSCDKTHTCPPCPAPEFEGGPSVFLFPPKPKDTLMISRTPEVTCVVVDVSHEDPEVKFNWYVDGVEVHNAKTKPREEQYNSTYRVVSVLTVLHQDWLNGKEYKCKVSNKALPASIEKTISKAKGQPREPQVCTLPPSREEMTKNQVSLSCAVKGFYPSDIAVEWESNGQPENNYKTTPPVLDSDGSFFLVSKLTVDKSRWQQGNVFSCSVMHEALHNRFTQKSLSLSPGK
chain 3: DIQLTQSPSTLSASVGDRVTITCRASESLDNYGIRFLTWFQQKPGKAPKLLMYAASNQGSGVPSRFSGSGSGTEFTLTISSLQPDDFATYYCQQTKEVPWSFGQGTKVEVKRTVAAPSVFIFPPSDEQLKSGTASVVCLLNNFYPREAKVQWKVDNALQSGNSQESVTEQDSKDSTYSLSSTLTLSKADYEKHKVYACEVTHQGLSSPVTKSFNRGEC
Kd (recombinant CD3 proteins [4]): 5.17 nM
koff (recombinant CD3 proteins [4]): 0.00307 s⁻¹
kon (recombinant CD3 proteins [4]): 594000 M⁻¹ s⁻¹

B5: CD3 × CD33-BspAb86 (bispecific antibody)
chain 1: EVQLVESGGGLVKPGGSLRLSCAASGFTFSSYSMNWVRQAPGKCLEWVSSISRSGTYIYYADSVKGRFTISRDNAKNSLYLQMNSLRAEDTAVYYCARERWELLYFDYWGQGTLVTVSSGGGGSGGGGSGGGGSGGGGSQTVVTQEPSLTVSPGGTVTLTCASSTGAVTSGYYPNWFQQKPGQAPRALIYSTSNKHSWTPARFSGSLLGGKAALTLSGVQPEDEAEYYCLLYYGGAYVFGCGTKVTVLDKTHTCPPCPAPEFEGGPSVFLFPPKPKDTLMISRTPEVTCVVVDVSHEDPEVKFNWYVDGVEVHNAKTKPREEQYNSTYRVVSVLTVLHQDWLNGKEYKCKVSNKALPASIEKTISKAKGQPREPQVYTLPPCREEMTKNQVSLWCLVKGFYPSDIAVEWESNGQPENNYKTTPPVLDSDGSFFLYSKLTVDKSRWQQGNVFSCSVMHEALHNHYTQKSLSLSPGK
chain 2: EVQLVQSGAEVKKPGSSVKVSCKASGYTITDSNIHWVRQAPGQSLEWIGYIYPYNGGTDYNQKFKNRATLTVDNPTNTAYMELSSLRSEDTAFYYCVNGNPWLAYWGQGTLVTVSSASTKGPSVFPLAPSSKSTSGGTAALGCLVKDYFPEPVTVSWNSGALTSGVHTFPAVLQSSGLYSLSSVVTVPSSSLGTQTYICNVNHKPSNTKVDKRVEPKSCDKTHTCPPCPAPEFEGGPSVFLFPPKPKDTLMISRTPEVTCVVVDVSHEDPEVKFNWYVDGVEVHNAKTKPREEQYNSTYRVVSVLTVLHQDWLNGKEYKCKVSNKALPASIEKTISKAKGQPREPQVCTLPPSREEMTKNQVSLSCAVKGFYPSDIAVEWESNGQPENNYKTTPPVLDSDGSFFLVSKLTVDKSRWQQGNVFSCSVMHEALHNRFTQKSLSLSPGK
chain 3: DIQLTQSPSTLSASVGDRVTITCRASESLDNYGIRFLTWFQQKPGKAPKLLMYAASNQGSGVPSRFSGSGSGTEFTLTISSLQPDDFATYYCQQTKEVPWSFGQGTKVEVKRTVAAPSVFIFPPSDEQLKSGTASVVCLLNNFYPREAKVQWKVDNALQSGNSQESVTEQDSKDSTYSLSSTLTLSKADYEKHKVYACEVTHQGLSSPVTKSFNRGEC
Kd (recombinant CD3 proteins [5]): 54.2 nM
koff (recombinant CD3 proteins [5]): 0.0149 s⁻¹
kon (recombinant CD3 proteins [5]): 276000 M⁻¹ s⁻¹

Other lines, results leading:

Kd (recombinant CD3 proteins [2]): 24.4 nM
koff (recombinant CD3 proteins [2]): 0.0578 s⁻¹
kon (recombinant CD3 proteins [2]): 2.37e+06 M⁻¹ s⁻¹
B2: CD3 × CD33-BspAb89 (bispecific antibody)
chain 1: not shown
chain 2: EVQLVQSGAEVKKPGSSVKVSCKASGYTITDSNIHWVRQAPGQSLEWIGYIYPYNGGTDYNQKFKNRATLTVDNPTNTAYMELSSLRSEDTAFYYCVNGNPWLAYWGQGTLVTVSSASTKGPSVFPLAPSSKSTSGGTAALGCLVKDYFPEPVTVSWNSGALTSGVHTFPAVLQSSGLYSLSSVVTVPSSSLGTQTYICNVNHKPSNTKVDKRVEPKSCDKTHTCPPCPAPEFEGGPSVFLFPPKPKDTLMISRTPEVTCVVVDVSHEDPEVKFNWYVDGVEVHNAKTKPREEQYNSTYRVVSVLTVLHQDWLNGKEYKCKVSNKALPASIEKTISKAKGQPREPQVCTLPPSREEMTKNQVSLSCAVKGFYPSDIAVEWESNGQPENNYKTTPPVLDSDGSFFLVSKLTVDKSRWQQGNVFSCSVMHEALHNRFTQKSLSLSPGK
chain 3: DIQLTQSPSTLSASVGDRVTITCRASESLDNYGIRFLTWFQQKPGKAPKLLMYAASNQGSGVPSRFSGSGSGTEFTLTISSLQPDDFATYYCQQTKEVPWSFGQGTKVEVKRTVAAPSVFIFPPSDEQLKSGTASVVCLLNNFYPREAKVQWKVDNALQSGNSQESVTEQDSKDSTYSLSSTLTLSKADYEKHKVYACEVTHQGLSSPVTKSFNRGEC

Kd (recombinant CD3 proteins [3]): 12.6 nM
koff (recombinant CD3 proteins [3]): 0.000778 s⁻¹
kon (recombinant CD3 proteins [3]): 61800 M⁻¹ s⁻¹
B3: CD3 × CD33-BspAb88 (bispecific antibody)
chain 1: QVQLVQSGAEVKKPGASLKVSCKASGYTFTSYYMHWVRQAPGQCLEWMGIINPSNGNTISAQKFQGRVTMTRDTSTSTVYMEMSSLRSEDTAVYYCVRSWGYYVMDVWGQGTTVTVSSGGGGSGGGGSGGGGSGGGGSQTVVTQEPSFSVSPGGTVTLTCGLNSGSVSTSYYPSWYQQTPGQTPRTLIYSTNTRSSGVPDRFSGSILGNKAALTITGAQADDESDYYCVLYMGSGIWVFGCGTKLTVLDKTHTCPPCPAPEFEGGPSVFLFPPKPKDTLMISRTPEVTCVVVDVSHEDPEVKFNWYVDGVEVHNAKTKPREEQYNSTYRVVSVLTVLHQDWLNGKEYKCKVSNKALPASIEKTISKAKGQPREPQVYTLPPCREEMTKNQVSLWCLVKGFYPSDIAVEWESNGQPENNYKTTPPVLDSDGSFFLYSKLTVDKSRWQQGNVFSCSVMHEALHNHYTQKSLSLSPGK
chain 2: EVQLVQSGAEVKKPGSSVKVSCKASGYTITDSNIHWVRQAPGQSLEWIGYIYPYNGGTDYNQKFKNRATLTVDNPTNTAYMELSSLRSEDTAFYYCVNGNPWLAYWGQGTLVTVSSASTKGPSVFPLAPSSKSTSGGTAALGCLVKDYFPEPVTVSWNSGALTSGVHTFPAVLQSSGLYSLSSVVTVPSSSLGTQTYICNVNHKPSNTKVDKRVEPKSCDKTHTCPPCPAPEFEGGPSVFLFPPKPKDTLMISRTPEVTCVVVDVSHEDPEVKFNWYVDGVEVHNAKTKPREEQYNSTYRVVSVLTVLHQDWLNGKEYKCKVSNKALPASIEKTISKAKGQPREPQVCTLPPSREEMTKNQVSLSCAVKGFYPSDIAVEWESNGQPENNYKTTPPVLDSDGSFFLVSKLTVDKSRWQQGNVFSCSVMHEALHNRFTQKSLSLSPGK
chain 3: DIQLTQSPSTLSASVGDRVTITCRASESLDNYGIRFLTWFQQKPGKAPKLLMYAASNQGSGVPSRFSGSGSGTEFTLTISSLQPDDFATYYCQQTKEVPWSFGQGTKVEVKRTVAAPSVFIFPPSDEQLKSGTASVVCLLNNFYPREAKVQWKVDNALQSGNSQESVTEQDSKDSTYSLSSTLTLSKADYEKHKVYACEVTHQGLSSPVTKSFNRGEC
